Laboratory results published in PMC11305080 (2024).

B1: 1D05 Fab (Fab, V domains shown)
VH: QVQLVQSGAEVKKPGSSVKVSCKASGGTFNSHAISWVRQAPGQGLEWMGGINPILGIANYAQKFQGRVTITADESTSTAYMELSSLRSEDTAVYYCARHYEIQIGRYGMNVYYLMYRFASWGQGTLVTVSS
VL: DIQMTQSPSSLSASVGDRVTITCRASQGIRSALNWYQQKPGKAPKLLIYNGSTLQSGVPSRFSGSGSGTDFTLTISSLQPEDFAVYYCQQFDGDPTFGQGTKVEIK
B2: AMG145 (evolocumab) IgG (antibody, V domains shown)
VH: EVQLVQSGAEVKKPGASVKVSCKASGYTLTSYGISWVRQAPGQGLEWMGWVSFYNGNTNYAQKLQGRGTMTTDPSTSTAYMELRSLRSDDTAVYYCARGYGMDVWGQGTTVTVSS
VL: ESALTQPASVSGSPGQSITISCTGTSSDVGGYNSVSWYQQHPGKAPKLMIYEVSNRPSGVSNRFSGSKSGNTASLTISGLQAEDEADYYCNSYTSTSMVFGGGTKLTVL
B3: HIT01-K21Q-R218E (cleavage-resistant variant of HIT01) (designed binder)
chain 1: DYSEDQEVKAPQLDHPDPGTERVAELLRCTKSVWRIPEQYLVVLREGTRDSHVQRTVSTLRAQAARRGHAIHIMHTYSGVFHGFLIKMSSEVLPMALKLPHVAYIEEDSSIFAQ
chain 2: SIPWNLQRIIQTKHETGKYTPPNDGAQVTVFLLDTSVQTDHREIEGKVMVTDFNSMPKEDGTRFHESASKCESHGTHIAGVLSGRDAGVARGVSVNTVRVLNCQGRGTVSGALAGLEYIRASLQAQPVSPVIILLPFVGGFSRTLNTACREMVHSGAVLIAAAGNYQDDACMYSPASEPEVITVGASNAADRPLSSGTTGTNLGRCVDVFAPGEDIISASGDCSTCFVSMSGTSQSAAHAAGIAAVLLNAYPSASPAEVLQLLRYHAVQRVINPDSLPPEHYLTTPDMVAALPTSAATGEKLLCRSVWSKRSGVGSFDTAVARCRHGEEMFSCSSYSPNGVHAGERIEIRDGQKVCEAHHGIGGQGVYAVARCCTGSRVKCHASASLHVGIDAECPSQEFQLTGCSSHYIRSQDVAQPSWPLHSNRKACPAGEGGTSHAFCCHAPNLECHLIEHHQSEFTKQVEVSCEDSWTLTGCNAVSHGSVTHAAYTRGNTCVIQMFGGDKGAAAIAICCRYRPLDQQSNNNHEQNT

What was measured:
Test in all cases: BLI
[1] = target: B3
[2] = target: human proprotein convertase subtilisin/kexin type 9 (PCSK9) (human, UniProt Q8NBP7 153-692)
J16 = target: J16

Kd [1]	Kd [2]	Kd (J16)	Binder
1830 pM			B1
190 pM	170 pM		B2
		620 pM	B3
